Kd data for two molecules are collected here from article doi:10.1101/2024.07.16.603632.

For the assay, the target named is fluorescently labeled isolated Grb2 C-SH3 domain. Put plainly: fluorescence polarisation; fluorescence anisotropy; PTP1B titrated into a solution of N-terminally fluorophore-labelled Grb2 construct; N = 2–4 independent titrations.

B1: PTP1B^1−401 (domain or fragment)
chain: MEMEKEFEQIDKSGSWAAIYQDIRHEASDFPCRVAKLPKNKNRNRYRDVSPFDHSRIKLHQEDNDYINASLIKMEEAQRSYILTQGPLPNTCGHFWEMVWEQKSRGVVMLNRVMEKGSLKCAQYWPQKEEKEMIFEDTNLKLTLISEDIKSYYTVRQLELENLTTQETREILHFHYTTWPDFGVPESPASFLNFLFKVRESGSLSPEHGPVVVHCSAGIGRSGTFCLADTCLLLMDKRKDPSSVDIKKVLLEMRKFRMGLIQTADQLRFSYLAVIEGAKFIMGDSSVQDQWKELSHEDLEPPPEHIPPPPRPPKRILEPHNGKCREFFPNHQWVKEETQEDKDCPIKEEKGSPLNAAPYGIESMSQDTEVRSRVVGGSLRGAQAASPAKGEPSLPEKDEDH
Molecule B1 had a Kd of 82.4 µM. This lies in the double-digit micromolar range.

B2: PTP1B^1−321 (wild-type protein tyrosine phosphatase 1B, residues 1-321) (domain or fragment)
chain: MEMEKEFEQIDKSGSWAAIYQDIRHEASDFPCRVAKLPKNKNRNRYRDVSPFDHSRIKLHQEDNDYINASLIKMEEAQRSYILTQGPLPNTCGHFWEMVWEQKSRGVVMLNRVMEKGSLKCAQYWPQKEEKEMIFEDTNLKLTLISEDIKSYYTVRQLELENLTTQETREILHFHYTTWPDFGVPESPASFLNFLFKVRESGSLSPEHGPVVVHCSAGIGRSGTFCLADTCLLLMDKRKDPSSVDIKKVLLEMRKFRMGLIQTADQLRFSYLAVIEGAKFIMGDSSVQDQWKELSHEDLEPPPEHIPPPPRPPKRILEPHN
On to B2, for which the Kd was found to be 62 µM.
